According to article PMC2259325:
Like-named read-outs stand apart in the source and are kept apart here.

Tests used:
Hck SH3 (Homo sapiens) [1] = target: Hck SH3 (Homo sapiens) (UniProt P08631); conditions: cited from earlier work
Hck SH3 (Homo sapiens) [2] = target: Hck SH3 (Homo sapiens) (UniProt P08631); conditions: cited from earlier work; remark: listed apart in the source
[3] = target: GST-Fyn SH3 domain fusion protein (wild type) (UniProt P06241); experiment: SPR; Biacore 3000, HBS buffer (10 mM Hepes-NaOH pH 7.4, 150 mM NaCl, 0.005% Tween-20), 25°C; GST-SH3 captured on CM5 chip via amine-coupled anti-GST antibody; NS5A 3 μM - 100 nM flowed over, in triplicate; 1:1 Langmuir fit
Sequence of GST-Fyn SH3 domain fusion protein (wild type) (P06241 82-143): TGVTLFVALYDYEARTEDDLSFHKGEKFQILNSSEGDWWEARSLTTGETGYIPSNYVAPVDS

Sequence of Hck SH3 (Homo sapiens) (P08631 75-141): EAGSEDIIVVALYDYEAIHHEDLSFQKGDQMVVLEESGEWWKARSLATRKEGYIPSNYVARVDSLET

Which Kd (Hck SH3 (Homo sapiens) [1]) does the source give for Nef (from UniProt P04324) here?
Its Kd is 250 nM.

With “Nef PxxPxR-containing peptide PxxPxR peptide (from UniProt P04324)” as the substance, how does the Kd (Hck SH3 (Homo sapiens) [2]) read?
Its Kd is 91 µM.

Which koff [3] does the source give for “NS5A(Δ250), N-terminally truncated hepatitis C virus non-structural 5A protein (domain or fragment)” here?
The koff was 0.00494 s⁻¹.

And the kon [3]?
Its kon is 9050 M⁻¹ s⁻¹.
